6 molecules from patent US20180118799A1 (NATIONAL INSTITUTE OF ADVANCED INDUSTRIAL SCIENCE AND …, published 2018) can be followed below.

The Kd is the free concentration of one partner at which half of the binding sites on the other are occupied at equilibrium, for simple one-to-one binding.

Assay [1] deals with T1, Fc-fusion G-CSF receptor.
T1 construct: also called granulocyte colony-stimulating factor receptor
T1 sequence (Q99062 whole entry, species assumed, looked up): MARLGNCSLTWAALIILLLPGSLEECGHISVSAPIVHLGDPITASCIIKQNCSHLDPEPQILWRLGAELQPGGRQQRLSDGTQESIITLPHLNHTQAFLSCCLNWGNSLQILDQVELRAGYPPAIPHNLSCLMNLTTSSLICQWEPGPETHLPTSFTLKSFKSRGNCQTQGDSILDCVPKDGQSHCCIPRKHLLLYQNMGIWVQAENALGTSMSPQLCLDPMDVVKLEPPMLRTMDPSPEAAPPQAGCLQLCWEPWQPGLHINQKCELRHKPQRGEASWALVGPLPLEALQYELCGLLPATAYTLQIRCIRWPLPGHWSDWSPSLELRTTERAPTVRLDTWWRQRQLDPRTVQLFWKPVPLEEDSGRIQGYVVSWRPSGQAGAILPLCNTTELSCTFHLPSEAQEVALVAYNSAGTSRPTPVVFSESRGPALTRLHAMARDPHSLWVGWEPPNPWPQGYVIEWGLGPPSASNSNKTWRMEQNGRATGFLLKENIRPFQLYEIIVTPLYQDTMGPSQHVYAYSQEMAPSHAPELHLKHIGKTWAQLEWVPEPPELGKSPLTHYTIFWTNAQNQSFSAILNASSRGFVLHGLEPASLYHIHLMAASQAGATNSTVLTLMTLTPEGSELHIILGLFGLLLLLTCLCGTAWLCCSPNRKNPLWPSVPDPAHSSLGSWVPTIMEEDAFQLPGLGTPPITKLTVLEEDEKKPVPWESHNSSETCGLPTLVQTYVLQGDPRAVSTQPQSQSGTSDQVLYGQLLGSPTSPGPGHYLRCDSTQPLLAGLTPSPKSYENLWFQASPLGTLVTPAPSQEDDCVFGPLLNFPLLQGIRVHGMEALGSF
As to the kind of experiment: SPR, Biacore T200, Fc-fusion G-CSF receptor captured on immobilized Protein A, single kinetic mode, 25 C (Example 19). The procedure: (§1) First, commercially available Protein A (Nacalai Tesque, Inc.) was immobilized on a flow cell of a sensor chip CM5 (GE Health care) by using an amine coupling reaction. Next, a running buffer HBS-P (10 mM HEPES pH 7.4, 150 mM NaCl, and 0.05% v/v Surfactant P20) in which an Fc-fusion G-CSF receptor had been dissolved was added to immobilize the receptor on the chip. The SPR measurement was carried out using Biacore T200 (Biacore) and the reaction temperature was 25° C. A 2-fold dilution series from 1.25 nM to 20 nM of the sample solution was prepared, and a single kinetic mode was used for measurement and analysis. When compared with Example 8, this Example had improvements such as use of Biacore T200, which has higher sensitivity than Biacore T100, and use of commercially available Protein A. The improvements helped increase the sensitivity and reproducibility of measurement. Then, the linear G-CSF, G-CSF(C177), and G-CSF(C163) as measured in Example 8 were remeasured and the resulting analysis values were used for comparison.
(§2) The observation results were analyzed using BIAevaluation version 4.1 to calculate a dissociation constant.

Assay [2] has as its target T1, Fc-fusion G-CSF receptor. As to the kind of experiment: SPR, Biacore T100, Fc-fusion G-CSF receptor captured on immobilized Protein G, single kinetic mode, 25 C (Example 8). The procedure: First, Protein G was immobilized on a flow cell of a sensor chip CMS (GE Health care) by using a maleimide coupling reaction. Next, a running buffer HBS-P (10 mM HEPES pH 7.4, 150 mM NaCl, and 0.05% v/v Surfactant P20) in which an Fc-fusion G-CSF receptor had been dissolved was added to immobilize the receptor on the chip. The SPR measurement was carried out using Biacore T100 (Biacore) and the reaction temperature was 25° C. A 2-fold dilution series from 1.25 nM to 20 nM of the sample solution was prepared, and a single kinetic mode was used for measurement and analysis.
as §2

Assay [3] deals with T1, Fc-fusion G-CSF receptor. Kind of assay: SPR, Biacore T200, Fc-fusion G-CSF receptor captured on immobilized Protein A, single kinetic mode, 25 C (Example 19, remeasured). As for the experimental part: as §1

B1: G-CSF(C170) (ligand)
chain: SGPASSLPQSFLLKSLEQVRKIQGDGAALQEKLCATYKLCHPEELVLLGHSLGIPWAPLSSCPSQALQLAGCLSQLHSGLFLYQGLLQALEGISPELGPTLDTLQLDVADFATTIWQQMEELGMAPALQPTQGAMPAFASAFQRRAGGVLVASHLQSFLEVSYRVLRHLG
modifications: backbone cyclized: amino group of serine at the N-terminus and carbonyl group of glycine at the C-terminus linked by a peptide bond
notes: 170 amino acids; also called cyclized G-CSF(C170)
In the assay with Fc-fusion G-CSF receptor [1], B1 returned a Kd of 0.05 nM.

B2: G-CSF(C166) (ligand)
chain: SSLPQSFLLKSLEQVRKIQGDGAALQEKLCATYKLCHPEELVLLGHSLGIPWAPLSSCPSQALQLAGCLSQLHSGLFLYQGLLQALEGISPELGPTLDTLQLDVADFATTIWQQMEELGMAPALQPTQGAMPAFASAFQRRAGGVLVASHLQSFLEVSYRVLRHLG
modifications: backbone cyclized: amino group of serine at the N-terminus and carbonyl group of glycine at the C-terminus linked by a peptide bond
notes: also called cyclized G-CSF(C166)
In the assay with Fc-fusion G-CSF receptor [1], B2 had a Kd of 0.06 nM.

B3: G-CSF(C177) (ligand)
chain: SMAPLGPASSLPQSFLLKSLEQVRKIQGDGAALQEKLCATYKLCHPEELVLLGHSLGIPWAPLSSCPSQALQLAGCLSQLHSGLFLYQGLLQALEGISPELGPTLDTLQLDVADFATTIWQQMEELGMAPALQPTQGAMPAFASAFQRRAGGVLVASHLQSFLEVSYRVLRHLAQPG
modifications: backbone cyclized: amino group of serine at the N-terminus and carbonyl group of glycine at the C-terminus linked by a peptide bond
notes: Cyclized with split inteins; also called cyclized G-CSF(C177)
Take B3: the Kd with Fc-fusion G-CSF receptor [2] turned out to be 0.57 nM; with Fc-fusion G-CSF receptor [3], 0.06 nM.

B4: linear control G-CSF (ligand)
chain: MAPLGPASSLPQSFLLKSLEQVRKIQGDGAALQEKLCATYKLCHPEELVLLGHSLGIPWAPLSSCPSQALQLAGCLSQLHSGLFLYQGLLQALEGISPELGPTLDTLQLDVADFATTIWQQMEELGMAPALQPTQGAMPAFASAFQRRAGGVLVASHLQSFLEVSYRVLRHLAQP
notes: Linear polypeptide of 175 amino acids; also called linear G-CSF
For the molecule B4, the Kd amounted to 0.43 nM with Fc-fusion G-CSF receptor [2] and 0.08 nM in the assay with Fc-fusion G-CSF receptor [3].

B5: filgrastim (ligand)
chain: MTPLGPASSLPQSFLLKCLEQVRKIQGDGAALQEKLCATYKLCHPEELVLLGHSLGIPWAPLSSCPSQALQLAGCLSQLHSGLFLYQGLLQALEGISPELGPTLDTLQLDVADFATTIWQQMEELGMAPALQPTQGAMPAFASAFQRRAGGVLVASHLQSFLEVSYRVLRHLAQP
notes: Its source in the assay is not described
As for B5, in the assay with Fc-fusion G-CSF receptor [1], the affinity, expressed as Kd, was 0.27 nM.

B6: G-CSF(C163) (ligand)
chain: SQSFLLKSLEQVRKIQGDGAALQEKLCATYKLCHPEELVLLGHSLGIPWAPLSSCPSQALQLAGCLSQLHSGLFLYQGLLQALEGISPELGPTLDTLQLDVADFATTIWQQMEELGMAPALQPTQGAMPAFASAFQRRAGGVLVASHLQSFLEVSYRVLRHLG
modifications: backbone cyclized: amino group of serine at the N-terminus and carbonyl group of glycine at the C-terminus linked by a peptide bond
notes: also called cyclized G-CSF(C163)
As to B6, the Kd in the assay with Fc-fusion G-CSF receptor [2] was found to be 0.57 nM; with Fc-fusion G-CSF receptor [3] it was 0.1 nM.
